# IntAct's records for PubMed 15020681
# B1: "Na(+)/H(+) exchange regulatory cofactor NHE-RF1" (Homo sapiens), O14745 (parent)
# chain: MSADAAAGAPLPRLCCLEKGPNGYGFHLHGEKGKLGQYIRLVEPGSPAEKAGLLAGDRLVEVNGENVEKETHQQVVSRIRAALNAVRLLVVDPETDEQLQKLGVQVREELLRAQEAPGQAEPPAAAEVQGAGNENEPREADKSHPEQRELRPRLCTMKKGPSGYGFNLHSDKSKPGQFIRSVDPDSPAEASGLRAQDRIVEVNGVCMEGKQHGDVVSAIRAGGDETKLLVVDRETDEFFKKCRVIPSQEHLNGPLPVPFTNGEIQKENSREALAEAALESPRPALVRSASSDTSEELNSQDSPPKQDSTAPSSTSSSDPILDFNISLAMAKERAHQKRSSKRAPQMDWSKKNELFSNL
# Variants of: B1
# Conditions: with moes_human MSN
row,Variant,effect of a mutation on the interaction
1,MSADAAAGAPLPRLCCLEKGPNGYGFHLHGEKGKLGQYIRLVEPGSPAEKAGLLAGDRLVEVNGENVEKETHQQVVSRIRAALNAVRLLVVDPETDEQLQKLGVQVREELLRAQEAPGQAEPPAAAEVQGAGNENEPREADKSHPEQRELRPRLCTMKKGPSGYGFNLHSDKSKPGQFIRSVDPDSPAEASGLRAQDRIVEVNGVCMEGKQHGDVVSAIRAGGDETKLLVVDRETDEFFKKCRVIPSQEHLNGPLPVPFTNGEIQKENSREALAEAALESPRPALVRSASSDTSEELNSQDSPPKQDSTAPSSTSSSDPILDFNISLAMAKERAHQKRSSKRAPQMDWSKKNELRSNL [F355R],decreasing interaction
